B1: sp¦Q5PR69¦CRAD_MOUSE (protein, UniProt Q5PR69 1-1291, looked up)
Capping protein-inhibiting …: MGARAFSHDSIFIPDGGAESEQTVQAMSQDNILGKVKTLQRQLGKNIKFGQRPSNAIPMKKAGSTDASSEEDFVLTSPMEIVTQQDIVPSDTENKSSDTPSSSSPLNLPEAGSDMEEKVAPVKPSRPKRHLSSAGTIESVNLDAIPLAIARLDNSAARHKLAVKPKNQRVSRKHRWLAQDRQNEPGSFESQSSLDQNGQLGEDKHIWHGEEPEPLESHEEKRLHEEYWRELEAKCKRQKAEAAEKRRQEEQRRQALERRLWEESLRQELLEEEEEGEEEEEVKEEGEEGEEVGLQPRAGKVPPEEGHQSGPEEQRCTEQELGGADDPARLEAEERRREQEEAERQAEKLRQREAERQEEEQKQREAERQEEEARQCEAERQAEKLRQREAERQEEEARQREAERQAEKLRQREAERQEEELRQREEAERQEKLRQRDAESQEEELRQREAERQRAQEEDAKGMLQEEEEEAKRIEELKGKETPEPLVEEGPQSPEGESQPWLTDDADQRSPLQRDLEKPGEREREDLESAGQREIAEEPRGEGEPAEQSGDLDAHCGGVDGEGKETAQTDSPQPQERQMEGTPAPEENEATAADIDRKVEELRWQEVDERQTMPRPYTFQVSSGSRQILFPKVNLSPVTPAKDASLAPAAQEPPAPRGAASHALPSALSIPHTAILVTGAQLCGPAVNLSQIKDTACKSLLGLSEEKRPMDVPTVESRAGSGKSRPAPESPSNAAALAEWASIRSRILKNSEGDQRGDREPARAGDEPVPRARCDSRGNVRRTPPVNAKFSIMPAWQKFSDSGAETFRQSLDGESGRKKPGLAPSEETAPQPHAAAQQEVSQEPPDTTDGCKFAKDLPSFLVPGLPSPQKAASRTESTTTLDSETTSDVGNPDPAMPGGEEKASPFGIKLRRTNYSLRFHCDQQAEQKKKKRHSSTGDSVGGATPATGSVSGESEPEATFLKHGPSLPQERKPALSPRKDSAESHSSGHYVAVAQSGLPPASGQTPAPEQDRAVSKMPSMQKPALAPKPASQTPPSSPLSKLSRPHLVELLARRAGKLDSEPSETAKESSDNQPPSPSLPEELKGQKRDEKDVPEKKPASPPLPAGQQERPSLIPETGRKEKPVLQSRHSLDGSKVTEKVETAQPLWITLALQKQKGFREQQATREERKQAREAKQAEKLSKETVSVSLQPGSSRASKTAPVHKPAAPSEEKKPETAVSRLQRREQLKKSNTLPTSVTVEISDSAPSAALVKDVTKRFSTPDAAPVSTEPAWLALAKRKAKAWSDCPQIIK
B2: sp¦Q9EPQ7¦STAR5_MOUSE (protein, UniProt Q9EPQ7 1-213, looked up)
StAR-related lipid transfer …: MDPSWATQESEAVAEKVLRYRRDASGWKKCREGNGVSISWRPSEEFPGNLYRGEGILCGTPEEVWDCIKPVASGLREKWDDNVSSFEIVQSITDMLCVSRTSTPSAAMKLISPRDFVDLVLVKKYEDGTISSNATHVEHPLCPPKPGFVRGFNHPCGCFCEPLPGDPNKTNLVTFFQTDLSGYLPQSVVDSFFPRSMAEFYPNLQKAVRKFHH
B3: sp¦O54983¦CRYM_MOUSE (protein, UniProt O54983 1-313, looked up)
Ketimine reductase …: MKRAPAFLSAEEVQDHLRSSSLLIPPLEAALANFSKGPDGGVMQPVRTVVPVAKHRGFLGVMPAYSAAEDALTTKLVTFYEGHSNTAVPSHQASVLLFDPSNGSLLAVMDGNVITAKRTAAVSAIATKLLKPPGSDVLCILGAGVQAYSHYEIFTEQFSFKEVRMWNRTRENAEKFASTVQGDVRVCSSVQEAVTGADVIITVTMATEPILFGEWVKPGAHINAVGASRPDWRELDDELMRQAVLYVDSREAALKESGDVLLSGADIFAELGEVISGAKPAHCEKTTVFKSLGMAVEDLVAAKLVYDSWSSGK
B4: sp¦Q8BZ60¦STON2_MOUSE (protein, UniProt Q8BZ60 1-895, looked up)
Stonin-2: MTTLDHVIATHQSEWVSFSEEPLFPTPLEGGTEEHFPGLSSSSERSESSSGENHVVDEGSQDLSHSEQDDSSEKMGLISEAASPPGSPVQPTPDLASAISNWVQFEDDTPWSSTSPPHKETALTLTMPCWTCPSFDSLRRCPLTSESSWTTHSEDTSSPSVAPSYTDLQLINTEEQASGRASGTDSTDNSSSLQEDEEVEMEAISWWAGSPAMNGHPAAPPVTTARFPSWVTFEDNEVGCPSPPVPSPKKPNTPSAATAAPDVPFNSTGSFKRDRPKSTLMNLPKVQKLDISSLNRPPSVIEAPPWRATNPFLNETLQDVQPSPINPFSAFFEEQERRSQNSSVSSTTGKSQRDSLIVVYQDAISFDDSGKSQPHPDAIEKLKQLQIDDPDPVGNTALPDDDPTASVELDAPSPASALSQPRDGWPMMLRIPEKKNIMSSRHWGPIYIKLTASGYLQLYYEQGLEKPFREFKLEICHEVSEPRLQNYDENGRIHSLRIDRVTYKEKKKYQPKPAVAHAAEREQVIKLGTTNYDDFRSFIHAVQDRLMDLPVLSMDLSTVGLNYLEEEITVDVRDEFSGTVGKGDNQILQHHVLTRIHILSFLSGLAECRLGLNDILIKGNEIVSRQDIMPTTTTKWIKLHECRFHGCVDEDVFNSSRVILFNPLDACRFELMRFRTVFAEKTLPFTLRTAASINGAEVEVQSWLRMSPGFSSNRDPLTQVPCENVMVRYPVPSEWVKNFRRDSVLGEKSLKAKVNRGASFGSAGASGSEPVMRVTLGTAKYEHAFNSIVWRINRLPDKNSASGHPHCFFCHLELGSDREVPSRFANYVNVEFSMPTTSASKAAVRSVSVEDKPDVRKWVNYSAHYSYKVEIEQKKSLKPDFEGEDLENPKECGVQ
B5: sp¦P43135¦COT2_MOUSE (protein, UniProt P43135 1-414, looked up)
COUP transcription factor 2: MAMVVSTWRDPQDEVPGSQGSQASQAPPVPGPPPGAPHTPQTPGQGGPASTPAQTAAGGQGGPGGPGSDKQQQQQHIECVVCGDKSSGKHYGQFTCEGCKSFFKRSVRRNLSYTCRANRNCPIDQHHRNQCQYCRLKKCLKVGMRREAVQRGRMPPTQPTHGQFALTNGDPLNCHSYLSGYISLLLRAEPYPTSRFGSQCMQPNNIMGIENICELAARMLFSAVEWARNIPFFPDLQITDQVALLRLTWSELFVLNAAQCSMPLHVAPLLAAAGLHASPMSADRVVAFMDHIRIFQEQVEKLKALHVDSAEYSCLKAIVLFTSDACGLSDVAHVESLQEKSQCALEEYVRSQYPNQPTRFGKLLLRLPSLRTVSSSVIEQLFFVRLVGKTPIETLIRDMLLSGSSFNWPYMAIQ
B6: sp¦Q9D7X1¦KCTD4_MOUSE (protein, UniProt Q9D7X1 1-259, looked up)
BTB/POZ domain-containing …: MERKIIRREKEREYEGRHNSVEDAEQGKNCKSTLMTLNVGGYLYITQKQTLTKYPDTFLEGIVNGKILCPFDADGHYFIDRDGLLFRHVLNFLRNGELLLPEGFRENQLLAQEAEFFQLKGLAEEVKSRWEKEQLTPRETTFLEITDNHDRSQGLRIFCNAPDFISKIKSRIVLVSKSRLDGFPEEFSVSSNIIQFKYFIKSENGTRLVLKEDNTFVCTLETLKFEAIMMALKCGFRLLTSLDCSKGSIVHSDALHFIK
B7: sp¦Q3TVI8¦PBIP1_MOUSE (protein, UniProt Q3TVI8 1-727, looked up)
Pre-B-cell leukemia …: MASCPDSDNSWVLAGSENLPVETLGPEPRMDPESEGASQALRDSSKADGKELAGTLDGEEKLFQTESSQRETAVLTESAAKGTLGADGHGTEAPGDTVVQEDSQETPVATSLGPDTQDLESEIHPQNLPSSPRAVWKEHRCSSSDDDTDVDVEGLRRRRGREPSSSQPVVPVDVEDQAKGEGIGGELGISLNMCFLGALVLLGLGILLFSGTLLEPETGPMEEAELQVFPETGPETELVETLGNRQDEIEHLQASSVPPDSVPSLQSMGFLLDKLAKENQDIRLLQAQLQAQKEELQSLLHQPKGLEEENARLREALQQGKTSHQALESELQQLRARLQGLEANCVRGVDGVCLNWGGDPQDGKATKEQGHKGQEPDPSLLEQHKQLEAEAKALRQELQRQWQLLGSVHWDLQRGLRDAGRGAPAHPGLAELGHMLAQTLQDLENQGINTGRSPNDSEAWHQKKPHTQSPREWGGKEKWRGGQRDQKAEHWKPRKEESGQERQRSWRDEGREHTGRWREDRLRADESGSRKDSKRQDPKVHPRKDGNSHSVERQKHSWGKDNSPDALSSWEELLRRKYRPPQGCSGVADCARQEGLALFGVELAPVRQQELASVLREYLSRLPWAGQLTKQLPLSPAYFGEDGIFRHDRLRFRDFVDALEDSLEEVALKQTGDDDEVDDFEDFVFGHFFGDKALKKRSRKKEKHSWNPRVVGPREEHSRHPHHYHQG
B8: sp¦P28076¦PSB9_MOUSE (protein, UniProt P28076 21-219, looked up)
Proteasome subunit beta type-9: TTIMAVEFDGGVVVGSDSRVSAGTAVVNRVFDKLSPLHQRIFCALSGSAADAQAIADMAAYQLELHGLELEEPPLVLAAANVVKNISYKYREDLLAHLIVAGWDQREGGQVYGTMGGMLIRQPFTIGGSGSSYIYGYVDAAYKPGMTPEECRRFTTNAITLAMNRDGSSGGVIYLVTITAAGVDHRVILGDELPKFYDE
B9: sp¦Q8BUB4¦WDFY2_MOUSE (protein, UniProt Q8BUB4 1-400, looked up)
WD repeat and FYVE …: MAAEIQPQPLTRKPILLQRVEGSQEVVNMAVIVPKEEGVISVSEDRTVRVWLKRDSGQYWPSIYHAMPSPCSCMSFNPETRRLSIGLDNGTISEFILSEDYNKMTPVKNYQAHQSRVTMVLFVLELEWVLSTGQDKQFAWHCSESGQRLGGYRTSAVASGLQFDVETRHVFIGDHSGQVTILKLEQENCTLLTSFRGHTGGVTALCWDPVQRVLFSGSSDHSVIMWDIGGRKGTAIELQGHNDKVQALSYAQHTRQLISCGGDGGIVVWNMDVERQETPEWLDSDSCQKCDQPFFWNFKQMWDSKKIGLRQHHCRKCGKAVCGKCSSKRSSIPLMGFEFEVRVCDSCHEAITDEERAPTATFHDSKHNIVHVHFDATRGWLLTSGTDKVIKLWDMTPVVS
B10: sp¦P50172¦DHI1_MOUSE (protein, UniProt P50172 1-292, looked up)
11-beta-hydroxysteroid …: MAVMKNYLLPILVLFLAYYYYSTNEEFRPEMLQGKKVIVTGASKGIGREMAYHLSKMGAHVVLTARSEEGLQKVVSRCLELGAASAHYIAGTMEDMTFAEQFIVKAGKLMGGLDMLILNHITQTSLSLFHDDIHSVRRVMEVNFLSYVVMSTAALPMLKQSNGSIAVISSLAGKMTQPMIAPYSASKFALDGFFSTIRTELYITKVNVSITLCVLGLIDTETAMKEISGIINAQASPKEECALEIIKGTALRKSEVYYDKSPLTPILLGNPGRKIMEFFSLRYYNKDMFVSN

The molecules below were run on hippocampal proteins (assay: DIA quantification proteomics, hippocampus of Mdga2+/- vs WT mice). Details: Mdga2+/- vs WT mouse hippocampus (HET-HIP-VS-WT-HIP); S3 Table, downregulated DEPs; SE, pvalue and adj_pvalue in own columns c3-c5.
Parameters: species or system mouse
Summary of the method: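 Hippocampi from 1.5–2-month-old male Mdga2+/− mice and WT littermates; 100 μg protein trypsin-digested, peptides high-pH fractionated. DDA-built spectral library, DIA by nano-LC–MS/MS with Spectronaut and mProphet QC. DEPs called at fold change >1.1 and p <0.05.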

Molecule	log2FC
B1	-1.882
B2	-1.896
B3	-1.898
B4	-1.549
B5	-1.636
B6	-1.758
B7	-1.692
B8	-1.875
B9	-1.823
B10	-1.766

Same assay, conditions: regulation class of the protein, HET-HIP-VS-WT-HIP; S3 Table, downregulated DEPs

Molecule	Class
B1	Down
B2	Down
B3	Down
B4	Down
B5	Down
B6	Down
B7	Down
B8	Down
B9	Down
B10	Down

Reference: PMC11960969, “Mdga2 deficiency leads to an aberrant activation of BDNF/TrkB signaling that underlies autism-relevant synaptic and behavioral changes in mice” (PLOS Biology, 2025)
